The subject of assay [1] is Ramos B cells. In words: sIgM loss frequency assay (surrogate for SHM). In kind it is cell-based, human. Conditions: day 7 after sorting mCherry+ cells. The text has this:
sIgM loss frequency provides a convenient surrogate assay for SHM (45, 46). To determine fractions of sIgM− cells, 2-5×10^5 cells were fixed in 3.7% formaldehyde and stained with anti-human IgM (1:500, Souther Biotech), and sIgM− variants quantified by FACS as described (47). To establish that selective pressure was not sufficient to affect the frequency of sIgM loss, we assayed loss of mCherry signal posttransduction (FIG. 18).

In assay [2] the test system is Ramos B cells. In words: Subcellular distribution of AID fusion proteins determined by HCS microscopy. In kind it is cell-based, human. The following applies: for Nuclear mCherry, mean: corrected for cytoplasmic baseline. Here is the method: Cells were fixed in 3.7% formaldehyde at a density of 2×10^6 cells/ml and stained with whole cell stain (HCS CellMask, Invitrogen) and DAPI (0.2 μg/ml). Fixed cells were then washed, resuspended in PBS and spun down in a 96-well μclear microplate (Greiner Bio One) for imaging. Cells were imaged by Thermo Scientific ArrayScan VTI HCS reader, analyzing 3000-6000 cells in each treatment group. Cells with very low or very high mCherry signals were eliminated, gating based on the mock transduction control (low) and eliminating cells with signals more than 5 SD from the mean (high). The HCS Colocalization BioApplication protocol was used to determine nuclear and whole cell boundaries in individual cells as defined by DAPI and HCS CellMask, respectively, thereby defining the cytoplasmic region as the region between nuclear and whole cell boundaries. The average signal in the nuclear and cytoplasmic compartments was determined in individual cells by measuring the total intensity of mCherry signal divided by area within each compartment. The ratio of nuclear to cytoplasmic signal (N/C) was calculated as the ratio of the average signals of nuclear and cytoplasmic mCherry.
G1, S, and G2/M phase cells were distinguished by ranking DNA content as determined by total DAPI signal, and specific fractions of the population assigned to G1, S and G2/M phases (FIG. 16A). HCS results were expressed in terms of average signal, to ensure independence of cell size, which increases during cell cycle (FIG. 16).
Cells were fixed and stained with whole cell stain (HCS CellMask, Invitrogen) and DAPI, washed, and imaged by Thermo Scientific ArrayScan VTI HCS reader, analyzing 3000-6000 cells in each treatment group. To enable accurate comparisons among different transductant populations, nuclear signal for each cell was corrected by subtraction of the corresponding baseline value, as established by linear regression analysis. HCS results were expressed in terms of average signal, to ensure independence of cell size.

B1: AID^F193A-mCherry: AID-mCherry carrying the AID F193A mutation, which prevents nuclear export (protein, UniProt Q9GZX7 1-198, looked up, variant F193A)
Single-stranded DNA cytosine …: MDSLLMNRRKFLYQFKNVRWAKGRRETYLCYVVKRRDSATSFSLDFGYLRNKNGCHVELLFLRYISDWDLDPGRCYRVTWFTSWSPCYDCARHVADFLRGNPNLSLRIFTARLYFCEDRKAEPEGLRRLHRAGVQIAIMTFKDYFYCWNTFVENHERTFKAWEGLHENSVRLSRQLRRILLPLYEVDDLRDAARTLGL
modifications: C-terminal mCherry fusion
notes: AID-mCherry carrying the AID F193A mutation, which prevents nuclear export
Regarding B1, the sIgM loss rates entry in assay [1] is given as “greatly elevated”. Further, the “subcellular localization by HCS across cell cycle” value in assay [2] (G1, S, G2/M phase cells) is “persistent nuclear localization”. In addition, the “Cytoplasmic mCherry, mean” value in assay [2] (G1 phase cells) was determined as 66.4; in assay [2] (G2/M phase cells), 60.2; in assay [2] (S phase cells), 58.6; in assay [2] (whole transductant population) it was 62.9. Besides, the “Total mCherry, mean” value in assay [2] (G1 phase cells) was 117.5; in assay [2] (G2/M phase cells) it was 109.7; in assay [2] (S phase cells), 103.2; in assay [2] (whole transductant population), 111.4. Besides, the “Nuclear mCherry, mean” value in assay [2] (G1 phase cells) amounted to 75.4; in assay [2] (G2/M phase cells), 63.6; in assay [2] (S phase cells), 56.8; in assay [2] (whole transductant population), 67.5.

Source of the values: US20160369258A1, “RESTRICTING NUCLEAR PROTEIN TO SPECIFIC PHASES OF THE CELL CYCLE” (UNIVERSITY OF WASHINGTON, priority 2014, published 2016).
